Values joined by “and” are separate entries in the source; they are usually repeats but may differ in a detail not shown here. Equal values may be shown once.

The values below come from US20260219283A1.

This experiment addresses semi-synthetic pS129-α-synuclein (Proteos Inc.) (Homo sapiens (Human)) (UniProt P37840). As to the kind of experiment: sandwich ECLIA, freshly prepared pS129-α-syn standard at 100 ng/mL.

Turning to “anti-pS129-α-syn monoclonal antibody EP1536Y”, the ECLIA signal at 100 ng/mL standard was 500000 and 1.1e+06.
